The source of these data is patent publication US20050085420A1, “Method of modulating apoptosis and compositions thereof” (priority 2003, published 2005).

One test deals with MEFs. Nature of the test: G418 selection of mouse embryonic fibroblasts. The following applies: 0.3 mg/ml G418, 3 days. Type of test: cell-based. The procedure:
vdac1 -/- and vdac2 -/- embryonic stem (ES) cells were described previously S. Wu, M. J. Sampson, W. K. Decker, W. J. Craigen, Biochim Biophys Acta 1452, 68-78. (1999). 129/SvEv derived ES cell clones with homozygous deletion of vdac2 alleles were microinjected into blastocysts from C57BL/6 female mice. Mouse embryonic fibroblasts derived from E13.5 day chimeric embryos were treated with 0.3 mg/ml G418 (GIBCO-BRL) at second passage for 5 days to select for vdac2 -/- cells. Normally, 100% of MEFs died at 3 days in the presence of 0.3 mg/ml G418. Deficiency of VDAC2 in cells following G418 selection was confirmed by an immunoblot developed with an anti-VDAC2 Ab.

A further test addresses T1, BAK-X complex (Mus musculus, UniProt O08734+Q60930).
T1 construct: isolation of mitochondria (50 μg) from wild-type (wt) mouse embryonic fibroblasts (MEFs); endogenous in cells; host or cells: mitochondria from wt MEFs
T1 sequence (O08734 2-209 limits assumed): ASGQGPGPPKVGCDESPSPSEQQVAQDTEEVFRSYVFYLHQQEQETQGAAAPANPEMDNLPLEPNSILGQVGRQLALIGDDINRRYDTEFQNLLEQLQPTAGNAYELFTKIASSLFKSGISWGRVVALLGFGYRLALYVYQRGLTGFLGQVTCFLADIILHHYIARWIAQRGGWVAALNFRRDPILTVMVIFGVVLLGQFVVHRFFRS
T1 sequence (Q60930 1-295): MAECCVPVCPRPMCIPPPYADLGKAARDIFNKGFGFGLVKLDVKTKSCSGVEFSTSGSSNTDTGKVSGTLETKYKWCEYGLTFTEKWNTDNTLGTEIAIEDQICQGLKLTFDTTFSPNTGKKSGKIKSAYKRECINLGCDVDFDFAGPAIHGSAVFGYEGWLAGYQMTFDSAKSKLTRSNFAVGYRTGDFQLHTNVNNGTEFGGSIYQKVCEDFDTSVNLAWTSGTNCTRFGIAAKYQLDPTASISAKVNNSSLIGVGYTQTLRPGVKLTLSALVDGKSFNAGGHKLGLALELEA
The test is described as follows: DSS cross-linking of BAK-X complex in isolated mitochondria, anti-BAK immunoblot. The format is biochemical. The following applies: liver mitochondria 50 μg, 5 μl in vitro transcribed-translated mutant tBID, 30° C. 30 min. The procedure:
FIG. 1A is an illustration depicting isolation of mitochondria (50 μg) from wild-type (wt) mouse embryonic fibroblasts (MEFs). The isolated mitochondria were incubated with recombinant tBID protein (50 ng) at 30° C. for 30 min, followed by treatment with the cross-linkers disuccinimidyl suberate (DSS) (10 mM) or bismaleimidohexane (BMH) (10 mM) at room temperature for 30 minutes. Higher order BAK complexes were identified by immunoblot developed with an anti-BAK antibody.
FIG. 1C is an illustration depicting treatment of mitochondria (50 μg) isolated from mouse liver, Bal17, Jurkat, and FL5.12 cells with 50 ng tBID protein at 30° C. for 30 min, followed by DSS cross-linking. The BAK-X complex was detected by an immunoblot developed with anti-BAK antibody.
FIG. 1E is a photograph depicting isolated liver mitochondria (50 μg) which were incubated with 5 μl of in vitro transcribed-translated wt or mutant tBID at 30° C. for 30 min, followed by DSS cross-linking. The BAK-X complex was detected by an immunoblot developed with anti-BAK antibody. […]
Protein crosslinkers were used to search for a candidate protein that interacts with BAK at the mitochondria in viable cells. A ˜60 kD mobility-shifted complex immunoreactive with an antibody (Ab) to BAK was detected after treatment of purified mitochondria (FIG. 1A) or viable whole cells (FIG. 1B) with the crosslinker disuccinimidyl suberate (DSS). […]
A general note: In western blotting, separated proteins are transferred to a membrane and probed.

Another test has as its target T2, VDAC2 (Mus musculus, UniProt Q60930).
T2 construct: expressed in transfected cells; host or cells: vdac1 -/-, vdac3 -/- mouse fibroblasts; wt or vdac2 -/- MEFs; Bax, Bak doubly deficient MEFs (retrovirus pMIG)
T2 sequence (Q60930 1-295): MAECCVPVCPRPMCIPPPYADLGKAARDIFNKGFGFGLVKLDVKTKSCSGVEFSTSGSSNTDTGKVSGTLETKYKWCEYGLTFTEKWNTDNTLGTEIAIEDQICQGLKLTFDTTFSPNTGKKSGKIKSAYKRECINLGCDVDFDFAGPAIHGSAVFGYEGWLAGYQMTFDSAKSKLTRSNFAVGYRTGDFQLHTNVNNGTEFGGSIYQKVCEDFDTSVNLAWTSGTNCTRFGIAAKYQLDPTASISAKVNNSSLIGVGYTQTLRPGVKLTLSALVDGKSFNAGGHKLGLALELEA
The test is described as follows: Anti-HA immunoprecipitation of HA-tagged VDAC2 with BH3-only molecules. The format is binding. The following applies: mitochondria, anti-HA immunoprecipitation, 1% CHAPS (or 0.2% NP40). From the text: Murine vdac1, vdac2, N-terminal HA-tagged vdac2, N-terminal-HA tagged Bax or Bak, as well as wild type and mutant Bak (mBH1, W122A, G123E, R124A; mBH3, L75E) were cloned into the retroviral expression vector MSCV-IRES-GFP (pMIG). PcDNA3-tBID (wt and mutants) was described previously M. C. Wei et al., Genes Dev 14, 2060-71. (2000). Generation of amphotropic retroviruses and retroviral infection were described previously E. H. Cheng et al., Mol Cell 8, 705-11. (2001). Retroviral expression of each indicated protein was confirmed by immunoblot. […]
The strength of association between BIM-EL and VDAC2 was compared to the strength of the association, if any, between BIM-EL and BAK or BAX. Mitochondria isolated from Bax, Bak doubly deficient MEFs transduced with retrovirus expressing N-terminal HA-tagged BAX, BAK, or VDAC2 were solubilized in 1% CHAPS or 0.2% NP-40 buffer, followed by anti-HA immunoprecipitation. The immunoprecipitates were analyzed by an immunoblot developed with anti-BIM. […] These findings indicate that BH3-only competition for VDAC2 frees BAK, which, in the absence of its specific inhibitor VDAC2, is prone to auto-activating homo-oligomerization. […]

Test [1] has as its target BCL-XL (in Bax, Bak doubly deficient MEFs) (mouse, UniProt Q64373-1 1-233). The test is described as follows: anti-HA co-immunoprecipitation in 1% CHAPS.

Chain of BCL-XL (in Bax, Bak doubly deficient MEFs) (Q64373 whole entry): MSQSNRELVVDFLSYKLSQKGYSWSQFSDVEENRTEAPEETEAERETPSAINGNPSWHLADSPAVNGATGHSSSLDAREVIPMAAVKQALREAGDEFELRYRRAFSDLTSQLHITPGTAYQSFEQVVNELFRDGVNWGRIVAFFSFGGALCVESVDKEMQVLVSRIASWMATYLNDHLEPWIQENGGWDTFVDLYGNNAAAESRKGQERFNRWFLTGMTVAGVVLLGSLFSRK

In turn, `CN[C@@H]1[C@@H](O)[C@@H](O[C@@H]2[C@@H](O)[C@H](O[C@H]3O[C@H]([C@@H](C)O)[C@@H](O)[C@H](O)[C@H]3N)[C@@H](N)C[C@H]2N)OC[C@]1(C)O` [G418] showed an MEFs died in the test with MEFs of 100%.

B1: mIII.1: mutant tBID with BH3 mutation mIII.1, still capable of binding BAK (protein)
chain: GSQASRSFNQGRIEPDSESQEEIIHNIARHLAQIGDEAAHNIQPTLVRQLAAQFMNGSLSEEDKRNCLAKALDEVKTAFPRDMENDKAMLIMTMLLAKKVASHAPSLLRDVFHTTVNFINQNLFSYVRNLVRNEMD
B1: the “dissociation of the BAK-X complex by mutant tBID” value in the test with BAK-X complex was “caused dissociation”.

B2: mutant tBID mIII.4 (G94E) (other, UniProt P70444 60-195, looked up)
chain: GSQASRSFNQGRIEPDSESQEEIIHNIARHLAQIEDEMDHNIQPTLVRQLAAQFMNGSLSEEDKRNCLAKALDEVKTAFPRDMENDKAMLIMTMLLAKKVASHAPSLLRDVFHTTVNFINQNLFSYVRNLVRNEMD
notes: domain: p15 tBID; also called m111.4 mutant; m l 11.4
Turning to B2, in the test with VDAC2, the “interaction with HA-tagged VDAC2 (co-immunoprecipitation)” value was “did not recognize VDAC2”. For the same molecule, in the test with BAK-X complex, the “dissociation of the BAK-X complex by mutant tBID” value is listed as “not”.

B3: N-terminal HA-tagged BAK (other, murine, UniProt O08734 1-209, looked up)
chain: MASGQGPGPPKVGCDESPSPSEQQVAQDTEEVFRSYVFYLHQQEQETQGAAAPANPEMDNLPLEPNSILGQVGRQLALIGDDINRRYDTEFQNLLEQLQPTAGNAYELFTKIASSLFKSGISWGRVVALLGFGYRLALYVYQRGLTGFLGQVTCFLADIILHHYIARWIAQRGGWVAALNFRRDPILTVMVIFGVVLLGQFVVHRFFRS
notes: also called HA-BAK; not shown: N-terminal HA tag
For the molecule B3, in test [1], the binding result is on record as “no binding”.
